Literature values in paper PMC11816674.

Tests used:
IP3R N-terminal region = IP3R N-terminal region (UniProt Q14643)
[1] = biological target: Cav1.4 1579-1605 (Homo sapiens) (UniProt O60840)
UniProt O60840, sequence (O60840 1579-1605): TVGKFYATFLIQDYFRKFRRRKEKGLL

UniProt Q14643, sequence (Q14643 1-604): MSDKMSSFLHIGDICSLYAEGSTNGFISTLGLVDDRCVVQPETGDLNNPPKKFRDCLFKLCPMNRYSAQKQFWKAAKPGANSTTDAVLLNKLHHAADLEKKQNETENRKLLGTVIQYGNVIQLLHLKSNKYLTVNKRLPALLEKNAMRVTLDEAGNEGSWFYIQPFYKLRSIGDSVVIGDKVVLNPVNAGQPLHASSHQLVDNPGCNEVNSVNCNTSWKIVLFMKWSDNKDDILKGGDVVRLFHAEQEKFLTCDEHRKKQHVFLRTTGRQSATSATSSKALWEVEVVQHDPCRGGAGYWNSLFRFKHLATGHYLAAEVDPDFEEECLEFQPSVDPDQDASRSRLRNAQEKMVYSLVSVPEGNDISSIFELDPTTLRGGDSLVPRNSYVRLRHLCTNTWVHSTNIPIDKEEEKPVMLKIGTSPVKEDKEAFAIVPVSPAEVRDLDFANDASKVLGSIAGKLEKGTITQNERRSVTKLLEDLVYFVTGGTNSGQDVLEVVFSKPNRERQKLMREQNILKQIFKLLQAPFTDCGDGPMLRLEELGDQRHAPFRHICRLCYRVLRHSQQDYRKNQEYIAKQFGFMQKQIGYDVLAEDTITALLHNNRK

| Substance | Kd (IP3R N-terminal region) | Kd [1] |
| --- | --- | --- |
| CaBP1 (from UniProt Q9NZU7) | 3000 nM | – |
| CaBP4 (from UniProt P57796) | – | 800 nM |
